According to doi:10.1101/2020.10.12.336495 (bioRxiv, 2020):

Molecular target: the molecule itself
Experiment: cryo-EM structure

B1: Saccharomyces cerevisiae vacuolar transient receptor potential yeast 1 (TRPY1) channel, full length (natural protein, UniProt Q12324 1-675, looked up)
chain: MVSANGDLHLPISNEQCMPENNGSLGFEAPTPRQILRVTLNLKYLIDKVVPIVYDPNDIVCDHSEILSPKVVKLAYEACGGNPKDKANKRKYQSVIIFSLLKVCEWYSILATMEVHNAKLYETRNLASQQLCKLLIEREETRDLQFLFMQLLLRRYVINENDEDQEPLNALELATDMHCTTVIGSSGFQRCLKWIWRGWIVQNGLDPTTFIKDDSLAEVSLISHFNPVRLKAPVYQNYLQMIFSFLFLGLYTLVVNGKDSERVQSFDLLESIFYVFNTGFILDELTKLYYIGYAHLSFWNLFNDTTYLIITFAMGFRAMSVTPLNAKYSSEDWDKISYRVLSCAAPFVWSRLLLYLESQRFIGIMLVILKHMMKESIVFFFLLFLIMIGFTQGFLGLDSADGKRDITGPILGNLTITVLGLGSFDVFEEFAPPYAAILYYGYYFIVSVILLNILIALYSTAYQKVIDNADDEYMALMSQKTLRYIRAPDEDVYVSPLNLIEVFMTPIFRILPPKRAKDLSYTVMTIVYSPFLLLISVKETREARRIKYNRMKRLNDDANEYDTPWDLTDGYLDDDDGLFSDNRNSGMRATQLKNSRSLKLQRTAEQEDVHFKVPKKWYKNVKKCSPSFEQYDNDDTEDDAGEDKDEVKELTKKVENLTAVITDLLEKLDIKDKKE
In the case of B1, the “stoichiometry N” value is reported as 4.
